Measured values: patent CN114106188A (SHENZHEN PEOPLE HOSPITAL, dated 2022)

Target: T1, ERp57蛋白 (蛋白二硫化物异构酶A3, purified recombinant full-length protein)
T1 chain: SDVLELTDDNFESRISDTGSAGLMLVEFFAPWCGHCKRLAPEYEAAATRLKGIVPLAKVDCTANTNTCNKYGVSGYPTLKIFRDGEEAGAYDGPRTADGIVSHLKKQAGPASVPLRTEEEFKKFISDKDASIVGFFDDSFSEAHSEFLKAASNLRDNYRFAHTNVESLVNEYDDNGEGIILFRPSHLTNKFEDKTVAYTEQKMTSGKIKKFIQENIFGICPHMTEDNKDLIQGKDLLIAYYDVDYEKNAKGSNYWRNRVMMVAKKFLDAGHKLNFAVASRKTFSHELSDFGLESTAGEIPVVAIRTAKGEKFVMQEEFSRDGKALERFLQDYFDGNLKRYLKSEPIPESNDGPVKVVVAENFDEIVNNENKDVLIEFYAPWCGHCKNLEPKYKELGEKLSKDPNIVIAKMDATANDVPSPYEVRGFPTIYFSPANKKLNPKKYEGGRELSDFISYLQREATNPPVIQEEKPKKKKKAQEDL
Assay: SPR (Biacore), antigen protein immobilised on chip, nanobody as analyte

B1: NbA11纳米抗体 (VHH)
VHH: AVQLVESGGGLVQAGGSLRLSCAASGRAFSRYAVGWFRQTPGKEREFVAAISYHGGYTAYADSVKGRFTISRDSTSNTVHLQMNSLKPEDTAVYYCNTDARALYDYWGQGTQVTVSS
notes: Alpaca-derived nanobody from a naive phage display library; Expressed in E. coli from PET-14B with an HA tag and purified on a Ni column
Which Kd does the source give for B1 here?
The Kd was 419 nM.
